Tests used:
[1] = cycloheximide chase immunoblot, MKN28; details: glycan lost; control: KIAA1324 WT
[2] = immunofluorescence, cell surface level, MKN28; details: glycan lost; control: KIAA1324 WT

B1: KIAA1324 (ELAPOR1, inceptor): 3NQ (protein)
parent chain: MAEPGHSHHLSARVRGRTERRIPRLWRLLLWAGTAFQVTQGTGPELHACKESEYHYEYTACDSTGSRWRVAVPHTPGLCTSLPDPIKGTECSFSCNAGEFLDMKDQSCKPCAEGRYSLGTGIRFDEWDELPHGFASLSANMELDDSAAESTGNCTSSKWVPRGDYIASNTDECTATLMYAVNLKQSGTVNFEYYYPDSSIIFEFFVQNDQCQPNADDSRWMKTTEKGWEFHSVELNRGNNVLYWRTTAFSVWTKVPKPVLVRNIAITGVAYTSECFPCKPGTYADKQGSSFCKLCPANSYSNKGETSCHQCDPDKYSEKGSSSCNVRPACTDKDYFYTHTACDANGETQLMYKWAKPKICSEDLEGAVKLPASGVKTHCPPCNPGFFKTNNSTCQPCPYGSYSNGSDCTRCPAGTEPAVGFEYKWWNTLPTNMETTVLSGINFEYKGMTGWEVAGDHIYTAAGASDNDFMILTLVVPGFRPPQSVMADTENKEVARITFVFETLCSVNCELYFMVGVNSRTNTPVETWKGSKGKQSYTYIIEENTTTSFTWAFQRTTFHEASRKYTNDVAKIYSINVTNVMNGVASYCRPCALEASDVGSSCTSCPAGYYIDRDSGTCHSCPTNTILKAHQPYGVQACVPCGPGTKNNKIHSLCYNDCTFSRNTPTRTFNYNFSALANTVTLAGGPSFTSKGLKYFHHFTLSLCGNQGRKMSVCTDNVTDLRIPEGESGFSKSITAYVCQAVIIPPEVTGYKAGVSSQPVSLADRLIGVTTDMTLDGITSPAELFHLESLGIPDVIFFYRSNDVTQSCSSGRSTTIRVRCSPQKTVPGSLLLPGTCSDGTCDGCNFHFLWESAAACPLCSVADYHAIVSSCVAGIQKTTYVWREPKLCSGGISLPEQRVTICKTIDFWLKVGISAGTCTAILLTVLTCYFWKKNQKLEYKYSKLVMNATLKDCDLPAADSCAIMEGEDVEDDLIFTSKKSLFGKIKSFTSKRTPDGFDSVPLKTSSGGLDMDL
With B1 as the protein, how does the “degradation_or_half_life, other: protein level remaining at 2 h” value [1] read?
Its value is “decreases”.

And the localisation_or_trafficking [2]?
Its localisation_or_trafficking is “decreases”.

— article PMC10447535
